# Measurements published in patent US20260167699A1 (Chugai, published 2026).
# B1: GpH7-A5/GpH7-B3 variant L328_16H/GpL16-k0 (antibody, human IgG1, kappa)
# heavy 1: not shown
# heavy 2: not shown
# light: DIVMTQSPLSLPVTPGEPASISCQASESLVHSNRNTYLHWYLQKPGQSPQLLIYKVSNRFSGVPDRFSGSGSGTDFTLKISRVEAEDVGVYYCSQNTHVPPTFGQGTKVEIERTVAAPSVFIFPPSDEQLKSGTASVVCLLNNFYPREAKVQWKVDNALQSGNSQESVTEQDSKDSTYSLSSTLTLSKADYEKHKVYACEVTHQGLSSPVTKSFNRGEC
# notes: He Ab; copies: 1 + 1 + 2
# B2: GpH7-A5/GpH7-B3 variant P331_14T/GpL16-k0 (antibody, human IgG1, kappa)
# heavy 1: not shown
# heavy 2: not shown
# light: B1 light
# notes: He Ab; copies: 1 + 1 + 2
# B3: GpH7-A5/GpH7-B3 variant Q295_11K/GpL16-k0 (antibody, human IgG1, kappa)
# heavy 1: not shown
# heavy 2: not shown
# light: B1 light
# notes: He Ab; copies: 1 + 1 + 2
# B4: GpH7-A5/GpH7-B3 variant P331_19Q/GpL16-k0 (antibody, human IgG1, kappa)
# heavy 1: not shown
# heavy 2: not shown
# light: B1 light
# notes: He Ab; copies: 1 + 1 + 2
# B5: GpH7-A5/GpH7-B3 variant P331_09D/GpL16-k0 (antibody, human IgG1, kappa)
# heavy 1: not shown
# heavy 2: not shown
# light: B1 light
# notes: He Ab; copies: 1 + 1 + 2
# B6: GpH7-A5/GpH7-B3 variant N325_13S/GpL16-k0 (antibody, human IgG1, kappa)
# heavy 1: not shown
# heavy 2: not shown
# light: B1 light
# notes: He Ab; copies: 1 + 1 + 2
# B7: GpH7-A5/GpH7-B3 variant P238_08L/GpL16-k0 (antibody, human IgG1, kappa)
# heavy 1: not shown
# heavy 2: not shown
# light: B1 light
# notes: He Ab; copies: 1 + 1 + 2
# B8: GpH7-A5/GpH7-B3 variant Q295_01G/GpL16-k0 (antibody, human IgG1, kappa)
# heavy 1: not shown
# heavy 2: not shown
# light: B1 light
# notes: He Ab; copies: 1 + 1 + 2
# B9: GpH7-A5/GpH7-B3 variant Q295_04F/GpL16-k0 (antibody, human IgG1, kappa)
# heavy 1: not shown
# heavy 2: not shown
# light: B1 light
# notes: He Ab; copies: 1 + 1 + 2
# B10: GpH7-A5/GpH7-B3 variant P331_18N/GpL16-k0 (antibody, human IgG1, kappa)
# heavy 1: not shown
# heavy 2: not shown
# light: B1 light
# notes: He Ab; copies: 1 + 1 + 2
# B11: GpH7-A5/GpH7-B3 variant P271_15Y/GpL16-k0 (antibody, human IgG1, kappa)
# heavy 1: not shown
# heavy 2: not shown
# light: B1 light
# notes: He Ab; copies: 1 + 1 + 2
# B12: GpH7-A5/GpH7-B3 variant Q295_13S/GpL16-k0 (antibody, human IgG1, kappa)
# heavy 1: not shown
# heavy 2: not shown
# light: B1 light
# notes: He Ab; copies: 1 + 1 + 2
# B13: GpH7-A5/GpH7-B3 variant P331_15Y/GpL16-k0 (antibody, human IgG1, kappa)
# heavy 1: not shown
# heavy 2: not shown
# light: B1 light
# notes: He Ab; copies: 1 + 1 + 2
# B14: GpH7-A5/GpH7-B3 variant P271_06M/GpL16-k0 (antibody, human IgG1, kappa)
# heavy 1: not shown
# heavy 2: not shown
# light: B1 light
# notes: He Ab; copies: 1 + 1 + 2
# B15: GpH7-A5/GpH7-B3 variant Q295_03V/GpL16-k0 (antibody, human IgG1, kappa)
# heavy 1: not shown
# heavy 2: not shown
# light: B1 light
# notes: He Ab; copies: 1 + 1 + 2
# B16: GpH7-A5/GpH7-B3 variant P331_08L/GpL16-k0 (antibody, human IgG1, kappa)
# heavy 1: not shown
# heavy 2: not shown
# light: B1 light
# notes: He Ab; copies: 1 + 1 + 2
# B17: GpH7-A5/GpH7-B3 variant Q295_10E/GpL16-k0 (antibody, human IgG1, kappa)
# heavy 1: not shown
# heavy 2: not shown
# light: B1 light
# notes: He Ab; copies: 1 + 1 + 2
# B18: GpH7-A5/GpH7-B3 variant P271_16H/GpL16-k0 (antibody, human IgG1, kappa)
# heavy 1: not shown
# heavy 2: not shown
# light: B1 light
# notes: He Ab; copies: 1 + 1 + 2
# B19: GpH7-A5/GpH7-B3 variant P238_15Y/GpL16-k0 (antibody, human IgG1, kappa)
# heavy 1: not shown
# heavy 2: not shown
# light: B1 light
# notes: He Ab; copies: 1 + 1 + 2
# B20: GpH7-A5/GpH7-B3 variant N325_16H/GpL16-k0 (antibody, human IgG1, kappa)
# heavy 1: not shown
# heavy 2: not shown
# light: B1 light
# notes: He Ab; copies: 1 + 1 + 2
# B21: GpH7-A5/GpH7-B3 variant P329_09D/GpL16-k0 (antibody, human IgG1, kappa)
# heavy 1: not shown
# heavy 2: not shown
# light: B1 light
# notes: He Ab; copies: 1 + 1 + 2
# B22: GpH7-A5/GpH7-B3 variant L328_18N/GpL16-k0 (antibody, human IgG1, kappa)
# heavy 1: not shown
# heavy 2: not shown
# light: B1 light
# notes: He Ab; copies: 1 + 1 + 2
# B23: GpH7-A5/GpH7-B3 variant Q295_05P/GpL16-k0 (antibody, human IgG1, kappa)
# heavy 1: not shown
# heavy 2: not shown
# light: B1 light
# notes: He Ab; copies: 1 + 1 + 2
# B24: GpH7-A5/GpH7-B3 variant Q295_07I/GpL16-k0 (antibody, human IgG1, kappa)
# heavy 1: not shown
# heavy 2: not shown
# light: B1 light
# notes: He Ab; copies: 1 + 1 + 2
# B25: GpH7-A5/GpH7-B3 variant P331_07I/GpL16-k0 (antibody, human IgG1, kappa)
# heavy 1: not shown
# heavy 2: not shown
# light: B1 light
# notes: He Ab; copies: 1 + 1 + 2
# B26: GpH7-A5/GpH7-B3 variant P331_03V/GpL16-k0 (antibody, human IgG1, kappa)
# heavy 1: not shown
# heavy 2: not shown
# light: B1 light
# notes: He Ab; copies: 1 + 1 + 2
# B27: GpH7-A5/GpH7-B3 variant P271_11K/GpL16-k0 (antibody, human IgG1, kappa)
# heavy 1: not shown
# heavy 2: not shown
# light: B1 light
# notes: He Ab; copies: 1 + 1 + 2
# B28: GpH7-A5/GpH7-B3 variant Q295_06M/GpL16-k0 (antibody, human IgG1, kappa)
# heavy 1: not shown
# heavy 2: not shown
# light: B1 light
# notes: He Ab; copies: 1 + 1 + 2
# B29: GpH7-A5/GpH7-B3 variant P329_02A/GpL16-k0 (antibody, human IgG1, kappa)
# heavy 1: not shown
# heavy 2: not shown
# light: B1 light
# notes: He Ab; copies: 1 + 1 + 2
# B30: GpH7-A5/GpH7-B3 variant Q295_12R/GpL16-k0 (antibody, human IgG1, kappa)
# heavy 1: not shown
# heavy 2: not shown
# light: B1 light
# notes: He Ab; copies: 1 + 1 + 2
# Target: T1, FcγRIIIa extracellular domain, C-terminal His tag (human, UniProt P08637 17-208)
# T1 construct: extracellular domain; also called 3a
# T1 sequence (P08637 other isoform, or with tags, fused parts or gaps): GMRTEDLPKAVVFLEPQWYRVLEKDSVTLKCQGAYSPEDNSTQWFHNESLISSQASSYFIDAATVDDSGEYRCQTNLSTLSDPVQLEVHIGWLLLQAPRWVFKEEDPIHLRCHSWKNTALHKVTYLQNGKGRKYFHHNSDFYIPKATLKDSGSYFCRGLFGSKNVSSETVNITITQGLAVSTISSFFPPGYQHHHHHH
# Test: SPR, binding activity relative to GpH7-A5/GpH7-B3/GpL16-k0 (=100)
row,He/Con 3a [%],Binder
1,55.9,B1
2,67.8,B2
3,81.8,B3
4,73.9,B4
5,71.6,B5
6,71.9,B6
7,71.3,B7
8,76.6,B8
9,75.1,B9
10,67.1,B10
11,62.7,B11
12,90.4,B12
13,74.9,B13
14,74,B14
15,86.2,B15
16,66,B16
17,105,B17
18,70.3,B18
19,61,B19
20,68,B20
21,52.5,B21
22,51.1,B22
23,74.4,B23
24,101,B24
25,60.4,B25
26,66.9,B26
27,92.5,B27
28,100,B28
29,55.2,B29
30,73.2,B30
